Experimental findings from patent publication US11607390B2, “Self-righting systems and related components and methods” (priority 2017, dated 2023) are described below.

In the data set the test system is Micrococcus lysodelkticus cells. The experiment in a line: Lysozyme enzyme activity assay. The class given is biochemical. The conditions noted are these: micropost tips 80% lysozyme, 20% PEO 200k vs uncompressed. On the procedure: […] assays were performed on the dissolved solution.
To measure the activity of lysozyme, the assay provided by Sigma Aldrich was used which measures the amount of lysed Micrococcus lysodelkticus cells. Briefly, a 200 unit/mL Lysozyme solution in 50 mM Potassium Phosphate Buffer was added to a 0.015% [w/v] Micrococcus lysodeiklicus cell suspension in the same buffer. The decrease was recorded in A450 over 5 minutes. Nine micropost tips were fabricated from 80% lysozyme and 20% PEO 200k and dissolved sets of three micropost tips together. Triplicate assays were performed on each dissolved solution for a total of nine tests and the results were compared to the results of a solution made with lysozyme that was not compressed into a micropost tip.

On to lysozyme, for which the “enzymatic activity after the manufacturing process” value is given as “maintain their activity”.
